Measurements published in US20130052192A1 (Novo Nordisk, published 2013).

Target: T1, human CD62P (P-Selectin) on the surface of activated platelets (human, UniProt P16109 42-830)
T1 sequence: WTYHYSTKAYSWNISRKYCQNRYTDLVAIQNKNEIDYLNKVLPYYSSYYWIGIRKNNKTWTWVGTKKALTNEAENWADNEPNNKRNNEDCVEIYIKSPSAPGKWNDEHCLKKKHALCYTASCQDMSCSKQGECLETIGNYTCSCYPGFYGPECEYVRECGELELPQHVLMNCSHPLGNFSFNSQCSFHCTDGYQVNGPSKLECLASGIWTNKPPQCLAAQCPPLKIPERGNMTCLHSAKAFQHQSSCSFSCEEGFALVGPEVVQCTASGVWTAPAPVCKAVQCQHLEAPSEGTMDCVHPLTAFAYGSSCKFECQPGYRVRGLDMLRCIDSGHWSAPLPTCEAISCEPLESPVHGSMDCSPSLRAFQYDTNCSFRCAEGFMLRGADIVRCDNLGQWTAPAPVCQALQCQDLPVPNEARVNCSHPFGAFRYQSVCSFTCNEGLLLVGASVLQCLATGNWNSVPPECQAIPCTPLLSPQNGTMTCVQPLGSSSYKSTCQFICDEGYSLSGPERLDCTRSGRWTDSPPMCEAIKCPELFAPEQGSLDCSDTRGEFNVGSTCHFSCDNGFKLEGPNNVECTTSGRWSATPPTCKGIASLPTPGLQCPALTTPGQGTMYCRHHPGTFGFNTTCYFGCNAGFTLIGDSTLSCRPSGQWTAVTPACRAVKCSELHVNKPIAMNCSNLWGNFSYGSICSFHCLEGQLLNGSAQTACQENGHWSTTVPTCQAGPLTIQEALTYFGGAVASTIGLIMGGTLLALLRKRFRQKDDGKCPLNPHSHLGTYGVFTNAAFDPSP
Assay: FACS on activated human platelets; sample incubated without Thrombin
Method: In short, blood from healthy donors was drawn by venipuncture of the antecubital vein. […] Platelet preparations were produced by making a standard Platelet Rich Plasma (PRP). Here, anti-coagulated whole blood was centrifuged (200 g for 15 minutes) without brake. […] Platelets were washed and prepared for staining. […] 50-100,000 cells were used per well.

B1: EP-FpA-PB1.3 mAb construct, incubated without Thrombin (uncleaved) (antibody, human IgG4, V domains shown)
VH: EAQLQQSGPELVEPGASVKVSCKASGYTFTNYVMHWVKQKPGQGLEWIGFINPSNDGPKYNERFKNKATLTSDKSSSTAYMELSSLTSEVSAVYFCARARPGFDWYFDVWGAGTTVTVSS
VL: DIVMTQSQKFMSTSVGDRVSVTCKASQNVATNVVWYQQRPGQSPKALIYTASYRFSGVPERFSGSGSGTDFTLTITNVQSEDLADYFCQQYNNYPYTFGGGTKVEIQR
notes: also called Sample 2
- binding result: no binding
